Experimental data as given in patent US20260265409A1 (NANJING LEADS BIOLABS, published 2026).
Positions count from the first letter of the chain named. Names may count otherwise.

B1: sibrotuzumab (humanized reference antibody) (antibody, human IgG1, kappa, V domains shown)
VH: QVQLVQSGAEVKKPGASVKVSCKTSRYTFTEYTIHWVRQAPGQRLEWIGGINPNNGIPNYNQKFKGRVTITVDTSASTAYMELSSLRSEDTAVYYCARRRIAYGYDEGHAMDYWGQGTLVTVSS
VL: DIVMTQSPDSLAVSLGERATINCKSSQSLLYSRNQKNYLAWYQQKPGQPPKLLIFWASTRESGVPDRFSGSGFGTDFTLTISSLQAEDVAVYYCQQYFSYPLTFGQGTKVEIKR
B2: humanized anti-FAP antibody huF19-LG (antibody, human IgG1, kappa, V domains shown)
VH: B1 VH with T24A, R26G, P41T, R44G, V68A, I70M, D73G, A76I, Y95F
VL: DIQMTQSPSSLSASVGDRVTITCKSSQSLLYSRNQKNYLAWFQQKPGKAPKLLIFWASTRESGVPSRFTGSGFGTDFTLTISSLQPEDFATYYCQQYFSYPLTFGQGTKLEIKR
notes: Humanized from murine F19
B3: mutant humanized FAP antibody huF19-LG-NGR (antibody, human IgG1, kappa, V domains shown)
VH: B1 VH with T24A, R26G, P41T, R44G, G56R, V68A, I70M, D73G, A76I, Y95F
VL: B2 VL
notes: huF19-LG with G56R (Kabat) in HCDR2; also called optimized FAP antibody; mutant antibody

Key:
[1] = target: T1, human FAP protein expressed on 293T cells (293T-human FAP) (human, UniProt Q12884 1-760); assay: flow cytometry on 293T-human FAP cells, PE goat anti-human IgG Fc secondary antibody
T1 sequence: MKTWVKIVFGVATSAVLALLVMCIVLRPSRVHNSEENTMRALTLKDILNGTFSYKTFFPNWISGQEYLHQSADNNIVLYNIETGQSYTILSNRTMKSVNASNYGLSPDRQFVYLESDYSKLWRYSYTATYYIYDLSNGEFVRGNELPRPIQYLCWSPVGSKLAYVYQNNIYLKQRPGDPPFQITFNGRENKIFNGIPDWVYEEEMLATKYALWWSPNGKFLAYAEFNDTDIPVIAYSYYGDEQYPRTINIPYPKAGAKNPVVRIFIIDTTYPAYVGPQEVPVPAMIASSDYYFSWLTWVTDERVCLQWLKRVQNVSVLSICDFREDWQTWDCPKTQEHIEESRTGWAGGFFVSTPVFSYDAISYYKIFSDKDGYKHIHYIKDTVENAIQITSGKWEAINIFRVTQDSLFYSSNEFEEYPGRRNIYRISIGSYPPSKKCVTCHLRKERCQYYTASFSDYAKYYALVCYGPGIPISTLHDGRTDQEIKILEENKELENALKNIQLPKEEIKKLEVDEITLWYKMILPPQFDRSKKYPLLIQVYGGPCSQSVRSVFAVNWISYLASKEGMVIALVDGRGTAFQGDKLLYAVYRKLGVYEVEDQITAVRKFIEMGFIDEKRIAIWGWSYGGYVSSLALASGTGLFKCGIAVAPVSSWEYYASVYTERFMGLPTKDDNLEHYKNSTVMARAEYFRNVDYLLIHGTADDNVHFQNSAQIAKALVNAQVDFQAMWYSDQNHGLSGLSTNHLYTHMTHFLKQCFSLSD
Protocol: (§1) The cells were washed twice with PBS, and then fluorescent secondary antibody R-PE-conjugated AffiniPure Goat Anti-Human IgG, Fcγ Fragment Specific (Jackson Immuno Research, Cat #109-116-098) was added. The cells were incubated at 4° C. for 30 min. The cells were washed twice with PBS and then resuspended, and finally, fluorescence signals were detected using the […] (BD Bioscience) flow cytometer.

[2] = target: T2, recombinant human FAP protein (Sino Biological, Cat #10464-H07H) (human, UniProt Q12884 26-760); assay: ELISA, human FAP protein coated on the plate, detection with HRP goat anti-human IgG F(ab')2; unit from the axis 'Antibody Conc[nM]' and paragraph 217
T2 construct: Bought protein
T2 sequence: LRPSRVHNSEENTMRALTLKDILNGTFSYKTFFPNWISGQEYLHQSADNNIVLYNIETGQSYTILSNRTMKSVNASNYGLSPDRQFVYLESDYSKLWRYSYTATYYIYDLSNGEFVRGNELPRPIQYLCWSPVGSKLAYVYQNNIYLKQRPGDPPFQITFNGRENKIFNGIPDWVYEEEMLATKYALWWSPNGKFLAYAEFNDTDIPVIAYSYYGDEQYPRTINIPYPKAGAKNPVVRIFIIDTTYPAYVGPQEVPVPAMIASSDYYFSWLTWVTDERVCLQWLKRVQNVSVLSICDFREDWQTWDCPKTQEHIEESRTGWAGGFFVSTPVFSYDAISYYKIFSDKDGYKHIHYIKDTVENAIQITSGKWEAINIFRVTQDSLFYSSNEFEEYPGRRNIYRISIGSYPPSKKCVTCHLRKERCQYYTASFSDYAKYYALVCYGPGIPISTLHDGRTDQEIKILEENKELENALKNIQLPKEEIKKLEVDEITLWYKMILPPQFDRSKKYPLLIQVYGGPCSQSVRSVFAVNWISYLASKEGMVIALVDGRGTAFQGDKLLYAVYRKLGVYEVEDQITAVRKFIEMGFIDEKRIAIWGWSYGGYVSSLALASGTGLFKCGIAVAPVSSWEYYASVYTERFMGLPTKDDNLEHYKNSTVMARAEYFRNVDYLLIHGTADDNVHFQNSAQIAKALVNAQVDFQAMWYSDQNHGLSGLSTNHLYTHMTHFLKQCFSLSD
Protocol: Human FAP protein (Sino Biological, Cat #10464-H07H) was immobilized on a 96-well plate by incubation overnight in a PBS buffer at 4° C. The plate was then blocked by incubation with a PBS containing 1% of BSA for 1 h at 37° C. After blocking, the plate was washed thrice with PBST (PBS containing 0.05% of Tween 20). […] After binding, the plate was washed thrice with PBST, incubated at 37° C. for 1 h with peroxidase-labeled goat anti-human IgG, F(ab′)₂ fragment specific (Jackson Immuno Research, Cat #109-035-097) diluted at 1/15,000 in the binding buffer, washed again, subjected to a chromogenic reaction with TMB, and quenched with 1 M H₂SO₄.

[3] = target: T3, human DPP4 protein expressed on 293T cells (293T-DPP4) (human, UniProt P27487 1-766); assay: flow cytometry on 293T-DPP4 cells, PE goat anti-human IgG Fc secondary antibody
T3 construct: also called CD26
T3 sequence (P27487 whole entry): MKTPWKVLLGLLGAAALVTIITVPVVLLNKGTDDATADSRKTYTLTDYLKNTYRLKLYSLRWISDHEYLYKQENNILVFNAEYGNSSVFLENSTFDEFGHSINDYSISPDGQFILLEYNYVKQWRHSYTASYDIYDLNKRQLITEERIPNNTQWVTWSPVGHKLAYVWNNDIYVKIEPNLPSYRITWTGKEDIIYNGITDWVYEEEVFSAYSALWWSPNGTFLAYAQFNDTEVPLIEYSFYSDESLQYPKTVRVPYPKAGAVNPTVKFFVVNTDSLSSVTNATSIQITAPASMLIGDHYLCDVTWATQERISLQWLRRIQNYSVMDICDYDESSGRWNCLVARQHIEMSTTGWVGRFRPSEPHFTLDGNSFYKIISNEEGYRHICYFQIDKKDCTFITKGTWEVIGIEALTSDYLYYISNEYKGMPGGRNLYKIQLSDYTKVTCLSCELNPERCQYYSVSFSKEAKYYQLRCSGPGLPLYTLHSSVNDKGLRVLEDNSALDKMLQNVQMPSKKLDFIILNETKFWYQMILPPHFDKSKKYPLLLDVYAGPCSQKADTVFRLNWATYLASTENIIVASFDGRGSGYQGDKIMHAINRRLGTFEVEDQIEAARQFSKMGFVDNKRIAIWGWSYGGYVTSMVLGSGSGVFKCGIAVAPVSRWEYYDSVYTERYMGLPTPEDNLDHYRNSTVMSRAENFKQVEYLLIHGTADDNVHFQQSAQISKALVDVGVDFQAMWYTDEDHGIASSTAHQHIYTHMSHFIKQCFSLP
Protocol: as §1, with “cytometer. […] The antibodies were diluted at 1:100 with PBS, and the cell pellet was resuspended and incubated at 4° C. for 30 min. The cells were washed twice with PBS and then resuspended in 100 μL of PBS, and finally, fluorescence signals were detected using the BD Accuri C5 (BD Bioscience) flow cytometer.” for “cytometer.”

[4] = target: T4, cynomolgus FAP protein expressed on 293T cells (293T-cynomolgus FAP) (cynomolgus monkey, UniProt Q12884 1-760 (human entry)); assay: flow cytometry on 293T-cynomolgus FAP cells, PE goat anti-human IgG Fc secondary antibody
T4 sequence: T1 sequence with S29P, V261F, E417D
Protocol: as §1

[5] = target: T1, human FAP protein expressed on 293T …; assay: flow cytometry on 293T-human FAP cells (panel title on the sheet), PE goat anti-human IgG Fc secondary antibody
Protocol: as §1

[6] = target: T4, cynomolgus FAP protein expressed on …; assay: flow cytometry on 293T-cynomolgus FAP cells (panel title on the sheet), PE goat anti-human IgG Fc secondary antibody
Protocol: as §1

Row | Binder | EC50 (read off the curve) [1] [nM] | EC50 [2] [nM] | binding result [3] | EC50 (read off the curve) [4] [nM] | EC50 (read off the curve) [5] [nM] | EC50 (read off the curve) [6] [nM]
1 | B1 | ~2 | 0.0863 | no binding (tested: 10 µg/mL) | ~1 | – | –
2 | B2 | ~2 | 0.0926 | no binding (tested: 10 µg/mL) | 1 to 2 | ~3 | ~4
3 | B3 | – | – | – | – | ~2 | ~3
